From the supplement of paper PMC9170038

Test system: MS2 coat protein
Experiment: apparent KD of MS2 coat protein; designed switch direction (-1 OFF switch, 1 ON switch): -1; higher = weaker reporter binding
Method in brief: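 On Illumina chips, designed RNA switches with common flanks were made by stalled E. coli RNA polymerase. Titrations with SNAP-549-labelled MS2 coat protein, doubling from 0.7 or 1.5 nM to 3 µM, were done with no input, with 200 uM small-molecule ligand, or with an oligonucleotide input. Apparent KD is the median per design over clusters, from curve fits of normalised cluster fluorescence.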

[1] = Eterna round: R95, input ligand: FMN 200 uM
[2] = Eterna round: R95, input ligand: microRNA oligo, concentration not stated
[3] = Eterna round: R95, input ligand: none
[4] = input ligand: microRNA oligo, concentration not stated

Sequence | apparent KD of MS2 coat protein [1] [nM] | apparent KD of MS2 coat protein [2] [nM] | apparent KD of MS2 coat protein [3] [nM] | apparent KD of MS2 coat protein (input ligand: FMN 200 uM) [nM] | apparent KD of MS2 coat protein (input ligand: none) [nM] | apparent KD of MS2 coat protein [4] [nM]
CCGAAUAUGUAGGAUAUCGUAUCGGAAACGAUACGAGAAGGGCAAACAUGAGGAUCACCCAUGUUCCUUAACGG [Fiskers Ex 6 - 13] (puzzle: Exclusion 6) | 16.3 | 15.1 | 14.2 |  |  | 
AACAGUCUAGAGGAUAUGCUGGAUGAAUAUCUGGCAGAAGGCUGGACAUGAGGAUCACCCAUGUAAAUACUACC [Omei Ex6 A1c] (Eterna round: R97, puzzle: Exclusion 6) |  |  |  | 96.9 | 36.5 | 
CCCAUGCCCGAGGAUAUGCUGUACAAAAGUACUGCAGAAGGCGGGACAUGAGGAUCACCCAUGUGGCGAAAGCC [Omei Ex G7] (Eterna round: R97, puzzle: Exclusion 6) |  |  |  | 11.5 | 124 | 
UAUUACAAGCGAAGAUCCCACAUGAGGAUCACCCAUGUGCUCGUCUUAUAAGGUACUGUGACGAAAGUCACGGUACC [Sensor 3, v1 - 91 v16] (Eterna round: R97, puzzle: Sensor, turn-off variant 1) |  |  |  | 32.7 | 31.1 | 
UUUAAUUUUUUUUUUUUACAAGCUUUUUGCUCGUCUUAUACAUGAGGAUCACCCAUGUGGGUGAAAGAUAGAUUGUC [JMF's solution 3] (puzzle: Sensor v3, turn-off variant 2) | 87.2 | 20.4 | 35.8 |  |  | 
UGAUCUUUUGUUAGGAUAUGCUGGGUUUUUUCUCAGCAGAAGGGACAUGAGGAUCACCCAUGUUCUCUCUUUUU [Magic-08] (puzzle: Brourd's mod of Exclusion 4) |  | 9.72 |  |  |  | 
CUUGUCCGAGGAUAUAUUAUGUGAUACAUGAGGAUCACCCAUGUUAUAUGAUGGAUAUAAAUAGAAGGCGGACGAG [Mat - Exclusion 5 - JL mod - D68] (puzzle: Exclusion 5) | 70.2 | 46.7 | 47.3 |  |  | 
UUUAAUUUUUUUUUUUUACAAGCUUUUUGCUCGUCUUAUACAUGAGGAUCACCCAUGUAGAUGGGAGGUAAAUUAUC [JMF 75] (puzzle: Sensor v3, turn-off variant 2) | 29.1 | 160 | 25.7 |  |  | 
GAUUAUGCGAGCUUUAGGGACAUGAGGAUCACCCAUGUUCGUCUUAUUAAUCUAGGUGCACUGACAUACCUAAAUCU [JMF 87] (puzzle: Sensor v3, turn-off variant 1) | 20.7 | 30 | 21.7 |  |  | 
ACAAGCUUUACGAUCCUCUACAUGAGGAUCACCCAUGUGCUCGUAUUGUUUAGUACUAUCACGAAAGUGAUAGUACA [Sensor, turn off variant 1 v.5] (Eterna round: R97, puzzle: Sensor, turn-off variant 1) |  |  |  | 467 | 1090 | 
AAAAGCAAGUAAAGAUUCUACAUGAGGAUCACCCAUGUGCUCGUCUUAUAAAGUACUAUCACGAAAGUGAUAGUACA [Sensor 3, v1 - 43] (puzzle: Sensor v3, turn-off variant 1) | 19.4 | 124 | 17.6 |  |  | 
UUUUGACAUGAGGAUCACCCAUGUGAGGAUAUGGCUUGUGGCGCGUCUGUGUGGCGGGUUAGAAGGCGCGUGCG [-24.6, -21.7 kcal, A 16%] (Eterna round: R97, puzzle: Exclusion 1) |  |  |  | 30.8 | 38.3 | 
ACAUGACCGCUAGGAUAUAGAUGACAUGAGGAUCACCCAUGUUGUCCCAUGUUGACGAUCACCGACUAGAAGGAGCCACCCAUG [ExNG2 5th] (Eterna round: R96, puzzle: Exclusion NG 2) |  |  |  | 53.4 | 52.5 | 34.6
UUUAUAAUUUCAAUCUUCGCUGGCAAACUUACGCCAGCCACAUGAGGAUCACCCAUGUUUUUUGUUCGUUUUAUUCU [Xeinzarace] (puzzle: Sensor v3, turn-off variant 2) | 18.8 | 49.8 | 22.6 |  |  | 
GAAUAGGGAGGAUAUCCAAUAUAUGACAUGAGGAUCACCCAUGUUUCCACUCGUACCUCCGGAGAAGGCCCAUAAA [Ex5 #4] (Eterna round: R97, puzzle: Exclusion 5) |  |  |  | 22.8 | 19.9 | 
UUUUGUUUGCGAGGAUAUGCUUUUAGUAAGUUAGCAGAAGGCGCGUUACAUAGAACCUCUUGUUACAUGAGGAUCACCCAUGUU [JR_ExcNG1_Sub036] (Eterna round: R96, puzzle: Exclusion NG 1) |  |  |  | 179 | 168 | 110
ACAUGAGGAUCACCCAUGUUCGGCUGGUCCGUUUCGGCUGUCGAGGAUAUAGUUCGGUGUCCGCGCUAGAAGGCGGGAGCCGGC [Aenatbe mod 63] (Eterna round: R96, puzzle: Exclusion NG 3) |  |  |  | 153 | 78.5 | 54.5

Sequence | apparent KD of MS2 coat protein [1] [nM] | apparent KD of MS2 coat protein [2] [nM] | apparent KD of MS2 coat protein [3] [nM] | apparent KD of MS2 coat protein (input ligand: FMN 200 uM) [nM] | apparent KD of MS2 coat protein (input ligand: none) [nM] | apparent KD of MS2 coat protein [4] [nM]
AGUCGGCGAGGAUAUACAUGAGGAUCACCCAUGUAUGAUCCUAGACCUGUAGGUCCAUGUAGAAGGCGCUGACA [Exclusion 3 - Was a mod at one point v.3] (puzzle: Exclusion 3) |  | 66.2 |  |  |  | 
GCACUGCGAGGAUAUACAUGAGGAUCACCCAUGUGUCGGCAGCCACGGUAGUACAAGUGUAGAAGGCGCGUUAG [EX3 #47] (Eterna round: R97, puzzle: Exclusion 3) |  |  |  | 140 | 69.1 | 
AGCUAGUCAGGAUAUACAAACAUGUCAAAAGACGUGAAGGGACAUGAGGAUCACCCAUGUAGAAGGGACUAGCA [Web Mod 74% 2] (Eterna round: R96, puzzle: Exclusion 2) |  |  |  | 304 | 49.2 | 43.1
GGUGCGUAUGUGAGGAUAUGCUGGUCCUUGGAUCAGCAGAAGGCACAUGAGGAUCACCCAUGUGGUGUCGUACC [JL bmx4 3.46] (puzzle: Brourd's mod of Exclusion 4) |  | 149 |  |  |  | 
GAGUGACAUGAGGAUCACCCAUGUGAGGAUAUCGGACGGACCAAAUUAACAACACCCGCGAGAAGGCACAUCGG [Exclusion 1 V21] (puzzle: Exclusion 1) |  | 110 |  |  |  | 
UACGAAUUAGGAUAUGCAAUGGGCUCGCUUUCCUUCGAUAAACUUGAGGAUCACCCAAGUAGAAGGAAUUUGUA [Mod 37 - Jieux - Exclusion 2] (Eterna round: R97, puzzle: Exclusion 2) |  |  |  | 14.8 | 12.9 | 
ACGCGACAUGAGGAUCACCCAUGUGAGGAUAUGGCCUGUUUGUCGUGUGCUGGCUCUGUCAGAAGGCGCGUGGG [salish99_ex1_r4_041] (Eterna round: R97, puzzle: Exclusion 1) |  |  |  | 612 | 683 | 
CCGUCGGUAGGAUAUGCUAUGCAUGUCGGCGCUAUUUGAGGACAUGAGGAUCACCCAUGUAGAAGGGCCGAGGU [Eternabot (L1) Solution 55] (Eterna round: R97, puzzle: Exclusion 2) |  |  |  | 22.7 | 15.7 | 
UAUUAGCAAGCGAGAUCCCACAUGAGGAUCACCCAUGUGCUCGUGCAUCCAGAAUUACUGGGUGCUGCUCGUCUUAU [Winner reversed engineered 13] (Eterna round: R97, puzzle: Sensor, turn-off variant 1) |  |  |  | 15.2 | 14.8 | 
AACUAGUCAGGAUAUACGAACAUGUCAAAAAACAUGAAGGGACAUGAGGAUCACCCAUGUAGAAGGGACUAGCA [74%, Web mod - With 3 less G's] (Eterna round: R96, puzzle: Exclusion 2) |  |  |  |  |  | 29.3
AAGAAACAUGAGGAUCACCCAUGUGAGGAUAUGAAAAAGAAAAGAAAAGAAAGAAGAAUCAGAAGGCACAAAGU [salish99-ex1_r3_089] (puzzle: Exclusion 1) | 26.5 | 25.9 | 32.6 |  |  | 
CUUUUGUGAGGAUAUCAGUAGUAAAUAAUUAAAAUUACUACUGAGAAGGCACAUGAGGAUCACCCAUGUUCCUC [salish99_ex3_r3_080] (puzzle: Exclusion 4) |  | 40.3 |  |  |  | 
GGUCUGCGAGGAUAUACAUGAGGAUCACCCAUGUGCGAGAUACUAGUGAGGUCGAUUGGUAGAAGGCGCGGACG [JL-ex3-2.06 salish99 mod] (puzzle: Exclusion 3) | 182 | 86.4 | 88.8 |  |  | 
AAUAACAAGCCGAUCCUUAACAUGAGGAUCACCCAUGUGCUCGUCUUGUAAAGUACUAUCACGAAAGUGAUAGUACA (Eterna round: R97, puzzle: Sensor, turn-off variant 1) |  |  |  | 25.1 | 22.7 | 
UUAUUAGCAGGAUAUAUCCAGGAUUACAUGAGGAUCACCCAUGUGGCCGCUUGAAAUUCUAUAGAAGGGCUUUAUU [Mod of ViennaUCT 36 - Jieux - Exclusion 5] (Eterna round: R97, puzzle: Exclusion 5) |  |  |  | 52.7 | 45.8 | 
GGUGGCUACGUGAGACAUGAGGAUCACCCAUGUUACCGAACGAAGGAUAUAGAAGCACAUAGCUACUAGAAGGUUGAAAAGAAA [Laeratveti] (Eterna round: R96, puzzle: Exclusion NG 3) |  |  |  | 22.6 | 29.9 | 24.1
UUGUUAUAUGUAGGAUAUGCGUAUUAUUAUUAUGCAGAAGGACAUGAGGAUCACCCAUGUAUGUUGUUGUUAUAUAUUAUAUAU [Title] (Eterna round: R96, puzzle: Exclusion NG 1) |  |  |  |  |  | 18.1
